# Results reported in patent US20250019450A1 (DIAGONAL THERAPEUTICS, published 2025).
# Molecular target: human IL-12 receptor (IL-12Rβ1 and IL-12Rβ2) on HEK-Blue IL-12 cells (human, UniProt P42701 24-662; Q99665 24-862)
# Test: cell-based or functional assay
# Sequence of human IL-12 receptor (IL-12Rβ1 and IL-12Rβ2) on HEK-Blue IL-12 cells (Q99665 24-862, chain 2 of 2, other chains not shown): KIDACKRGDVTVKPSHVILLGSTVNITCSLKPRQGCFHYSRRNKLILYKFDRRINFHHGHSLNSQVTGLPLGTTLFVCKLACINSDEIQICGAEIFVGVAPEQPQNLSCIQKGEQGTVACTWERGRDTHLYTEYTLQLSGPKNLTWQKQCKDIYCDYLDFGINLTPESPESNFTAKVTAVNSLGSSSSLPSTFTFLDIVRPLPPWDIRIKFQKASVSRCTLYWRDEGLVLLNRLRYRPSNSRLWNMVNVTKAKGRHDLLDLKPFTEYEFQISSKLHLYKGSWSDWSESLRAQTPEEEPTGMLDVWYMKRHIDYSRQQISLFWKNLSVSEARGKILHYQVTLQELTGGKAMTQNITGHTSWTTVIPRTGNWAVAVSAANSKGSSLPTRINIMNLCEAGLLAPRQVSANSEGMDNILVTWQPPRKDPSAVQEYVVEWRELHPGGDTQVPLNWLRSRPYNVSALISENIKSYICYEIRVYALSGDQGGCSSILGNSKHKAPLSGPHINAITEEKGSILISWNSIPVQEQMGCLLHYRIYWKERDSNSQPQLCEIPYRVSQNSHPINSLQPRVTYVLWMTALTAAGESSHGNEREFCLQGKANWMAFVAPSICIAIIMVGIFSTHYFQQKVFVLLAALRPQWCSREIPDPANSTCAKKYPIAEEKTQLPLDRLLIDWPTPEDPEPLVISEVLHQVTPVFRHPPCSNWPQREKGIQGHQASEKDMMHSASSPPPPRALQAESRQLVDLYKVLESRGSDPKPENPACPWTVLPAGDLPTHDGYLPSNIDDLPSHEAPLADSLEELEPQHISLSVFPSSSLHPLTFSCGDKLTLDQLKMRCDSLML
EC50,Max Absorbance,Binder
> 0.1 µM,0.58,"DGL584 (bispecific antibody, V domains shown) V domain 1: QVQLQESGGGLVQAGGSLRLSCAASGSIASINAMGWYRQAPGKQRDFVARIQLSGSTNYAHSVRGRFTISRDNAKNTVYLQMNNLKPEDTAVYVCAASNTGSLYGLRNYWGQGTQVTVEP V domain 2: QVQLVESGGGLVQPGGSLRLSCAASGFTFSSKAMHWFRQAPGKGLEWVSSINSGGAITYYKDSVKGRFTVSRDNAKNILYLEMNSLKPEDTALYYCATDTDGRTRGQGTQVTVEP"
> 0.1 µM,0.54,"DGL527 (bispecific antibody, V domains shown) V domain 1: EVQLVESGGGLVQPGGSLTLSCTASGFRFSDRSMGWYRQAPGKQRELVAAITVGGSTNYADSVKGRFTISRDNAKNTVYLQMNSLKPEDTALYYCNRRYPPDDYWGQGTQVTVEP V domain 2: QVQLVESGGGLVRPGGSLRLSCAASGFTFSSNGMHWFRQAPGKGLEWVSSIGSGGTSIYYADSVKGRFTISRDNAKNTLYLQMNSLKSDDTAVYYCSKEVTGATRGQGTQVTVEP"
> 0.1 µM,0.59,"DGL545 (bispecific antibody, V domains shown) V domain 1: QVQLVESGGGAVQAGGSLRLSCAASGLTSRHYVMAWFRQAPGIEREFVASIWWGGSTYYADSVKDRFTISRDNAENTVYLQMNSLKPEDTAVYRCAVGTKIGTMGPRYDYWGQGTQVTVEP V domain 2: QVQLVESGGGLVQAGGSLRLSCAASGRTFSSYAMGWFRQAPGKEREFVSAISWSGLSTYYVESVQGRFTISRDNAKNTVYLQMNSLKPEDTAVYYCAASRIYTNYVARSYEYDDWGQGTQVTVEP"
> 0.1 µM,0.48,"DGL599 (bispecific antibody, human IgG1, V domains shown) V domain 1: EVQLVESGGGLVQAGGSLRLSCAASGSKFSFNAMGWYRQTPGKQRELVAIIINGDMINYADSVKGRFTISRDNAKNTMYLQMNSLKPEDTAVYYCKMTRYVYDYWGQGTQVTVEP V domain 2: QVQLVQSGAEVKKPGASVRVSCKASGYTFTSYYIHWVRQAPGQGLEWMGIINPSGGSTSYAQKFQGRVTMTRDTSTTTVYMELSSLRSEDTAVYYCAKSNWAYAFDIWGQGTMVTVSS"
> 0.1 µM,0.64,"DGL571 (bispecific antibody, V domains shown) V domain 1: QVQLVESGGGLVQAGGSLRLSCAASRSISSFNEMAWYRQAPGEQRELVATIVSTVGFTNYADSVKGRFTISRDNAKNTVYLQMNSLKAEDTAVYYCNARRISTDYWGQGTQVTVEP V domain 2: QVQLVESGGGLVQPGGSLRLSCAASGFTFSNYAMSWIRQGPERGFEWVSRINSGGGTTSYADSVKGRFTISRDNAKNTLYLQMNSLKPEDTAVYYCAKHSHPDYSSNYYRPGQGTQVTVEP"
5.9e-10 M (implied),0.55,"DGL537 (bispecific antibody, V domains shown) V domain 1: QVQLVESGGGLVQAGGSLRLSCLASGRTSNYFMGWFRQAPGKEREFVAAISRSGGGTWYADSVKGRFAISRDNAKNTVNLQMNSLKREDTAVYYCAADRRTGTSVYTVDEYDYWGQGTQVTVEP V domain 2: QVQLVESGGGLVQAGGSLRLSCAASGRIFSAYRMGWFRQAPGKEREFVAGITWRGQTTYYAASVKGRFTISKDNAKKTVYLQMNSLKPEETAVYYCAVETNGLGRWDRPSEYDYWGQGTQVTVEP"

# The remaining lines, values behind:
Binder,EC50,Max Absorbance
"DGL408 (bispecific antibody, human IgG1, kappa) heavy 1: not shown heavy 2: QVQLVESGGGLVQPGGSLRLSCAASGFTFSNYAMSWVRQAPGKGLEWVSAINSDGTSTSYADSVKGQFTISRDNAKNTLYLQMNSLKPEDTAVYYCTKWEGDTDSDYKFKDYWGQGTQVTVEPKSSDKTHTCPPCPAPEAAGAPSVFLFPPKPKDTLMISRTPEVTCVVVDVSHEDPEVKFNWYVDGVEVHNAKTKPREEQYNSTYRVVSVLTVLHQDWLNGKEYKCKVSNKALPAPIEKTISKAKGQPREPQVCTLPPSRDELTKNQVSLSCAVKGFYPSDIAVEWESNGQPENNYKTTPPVLDSDGSFFLVSKLTVDKSRWQQGNVFSCSVMHEALHNRFTQKSLSLSPG light: not shown",,0.17
"DGL524 (bispecific antibody, V domains shown) V domain 1: EVQLVESGGGLVQPGGSLRLFCAASRSIFNINIMGWYRQAPGKQREWLASITSGGSTFYADSVKDRFTISRDSVKNTVYLQMNSLKPEDTAAYYCNRYRSVPLNTVYPWGQGTLVTVEP V domain 2: QVQLVESGGGLVQAGGSLRLSCAASGRIFSAYRMGWFRQAPGKEREFVAGITWRGQTTYYAASVKGRFTISKDNAKKTVYLQMNSLKPEETAVYYCAVETNGLGRWDRPSEYDYWGQGTQVTVEP",4.4e-10 M (implied),0.58
"DGL462 (bispecific antibody, V domains shown) V domain 1: EVQLVESGGGLVQPGGSLRLSCAASGFTFQNYAMSWLRKAPGEGLEWVSVINSGGGSTLYADSVKGRFTISRDNAKNTLYLQMHSLKSEDTAVYFCAKRRDDSTFGSLLYTHRGQGTQVTVEP V domain 2: QVQLVESGGGLVQAGGSLRLSCAASGRIFSAYRMGWFRQAPGKEREFVAGITWRGQTTYYAASVKGRFTISKDNAKKTVYLQMNSLKPEETAVYYCAVETNGLGRWDRPSEYDYWGQGTQVTVEP",1.2e-09 M (implied),0.52
"DGL465 (bispecific antibody, V domains shown) V domain 1: QVQLVESGGGLVQAGGSLRLSCAASGRAFSRYSMGWFRQAPGKEREFVAANYWSNGWTDYADTVKGRFSISRDNAKNTVYLQMNSLKPEDTAVYYCAGRSSSIPSADVVGYDYWGQGTQVTVEP V domain 2: QVQLVESGGGLVQPGGSLRLSCAASGFTFEPYDMSWFRQAPGKGPEWVSAIDKGGGAGATYYADSVKGRFTISRDNAKKTLYLQMKSLKPEDTAVYYCAITAGPYSDSTPRVAYRGEGTQVTVEP",> 0.1 µM,0.69
"DGL484 (bispecific antibody, V domains shown) V domain 1: QVQLVESGGGLVQAGGSLRLSCAASARIFNSYAVAWFRQTPGKEREFVASISWSGGSTNYADSVKGRFTISRDNAKNTVFLQMNSLKPADTAVYYCAADRNYYPSVLGKYTYWGQGTQVTVEP V domain 2: QVQLVESGGGLVQPGGSLRLSCAASGFTFEPYDMSWFRQAPGKGPEWVSAIDKGGGAGATYYADSVKGRFTISRDNAKKTLYLQMKSLKPEDTAVYYCAITAGPYSDSTPRVAYRGEGTQVTVEP",9.7e-09 M (implied),0.54
"DGL499 (bispecific antibody, V domains shown) V domain 1: EVQLVESGGGLVQAGGSLRLSCAASGLTFRNYAMAWFRQAPGKEREFVAGITWGGGLTHYVDSVKGRFTISRDNGKNTVYLQMNSLKSEDTAVYYCAGKTQGSTWYHLTPDGYDYWGQGTQVTVEP V domain 2: QVQLVESGGGLVQPGGSLRLSCAASGFTFEPYDMSWFRQAPGKGPEWVSAIDKGGGAGATYYADSVKGRFTISRDNAKKTLYLQMKSLKPEDTAVYYCAITAGPYSDSTPRVAYRGEGTQVTVEP",8.1e-09 M (implied),0.56
"DGL398 (bispecific antibody, human IgG1, kappa) heavy 1: not shown heavy 2: QVQLVESGGGLVQAGGSLRLSCAASGRTFSSYAMGWFRQAPGKEREFVSAISWSGLSTYYVESVQGRFTISRDNAKNTVYLQMNSLKPEDTAVYYCAASRIYTNYVARSYEYDDWGQGTQVTVEPKSSDKTHTCPPCPAPEAAGAPSVFLFPPKPKDTLMISRTPEVTCVVVDVSHEDPEVKFNWYVDGVEVHNAKTKPREEQYNSTYRVVSVLTVLHQDWLNGKEYKCKVSNKALPAPIEKTISKAKGQPREPQVCTLPPSRDELTKNQVSLSCAVKGFYPSDIAVEWESNGQPENNYKTTPPVLDSDGSFFLVSKLTVDKSRWQQGNVFSCSVMHEALHNRFTQKSLSLSPG light: DIQLTQSPSFLSASVGDRVTITCRASQGISSYLAWYQQQPGKPPKLLIYAASTLHSGVPSRFSGSGSGTEFTLTISSLQPEDFATYYCQQLNRYPYTCGQGTKLEIKRTVAAPSVFIFPPSDEQLKSGTASVVCLLNNFYPREAKVQWKVDNALQSGNSQESVTEQDSKDSTYSLSSTLTLSKADYEKHKVYACEVTHQGLSSPVTKSFNRGEC",,0.17
